This is an account of results in patent WO2001079494A1.

The assay concerns the target human TPO receptor (MPL) expressed on Ba/F3 cells (human) (UniProt P40238). Put plainly: cell-based or functional assay.

B1: 12B5 antibody (IgG) (antibody, from another filing)
scFv: QVQLVQSGGGLVRPGGSLSLSCAVSGITLRTYGMHWVRQAPGKGLEWVAGISFDGRSEYYADSVQGRFTISRDSSKNTLYLQMNSLRAEDTAVYYCARGAHYGFDIWGQGTMVTVSSGGGGTGGGGSGGGGSDIQMTQSPSTLSASIGDRVTITCRASEGIYHWLAWYQQKPGKAPKLLIYKASSLASGAPSRFSGSGSGTDFTLTISSLQPDDFATYYCQQYSNYPLTFGGGTKLEIK
Consider B1, for which the ED50, proliferation of BaF/Mpl cells (WST-8) was 0.029 µM.

B2: 12B5 Fab (Fab, from another filing)
scFv: B1 scFv
B2 came in with an ED50, proliferation of BaF/Mpl cells (WST-8) of 34.7 µM.
